Source: PMC3294036
Values joined by “and” are separate entries in the source; they are usually repeats but may differ in a detail not shown here. Identical values can stand only once.

How the values were obtained:
Assay in all cases: FRET or BRET
[1] = molecular target: AKAP79-CFP I338P variant (PPAIIIT), full-length (human) (UniProt P24588)
[2] = molecular target: AKAP79-CFP, wildtype, full-length (human) (UniProt P24588)
[3] = molecular target: ATTO425-AKAP79(333–408) I338P variant (PPAIIIT) (human) (UniProt P24588)
[4] = molecular target: ATTO425-AKAP79(333–408), wildtype (PIAIIIT) (human) (UniProt P24588)
ATTO425-AKAP79(333–408), wildtype (PIAIIIT) (human), sequence (P24588 333-408): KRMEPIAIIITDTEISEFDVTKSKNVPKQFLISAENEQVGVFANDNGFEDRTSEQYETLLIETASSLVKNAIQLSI

AKAP79-CFP, wildtype, full-length (human), sequence (P24588 whole entry): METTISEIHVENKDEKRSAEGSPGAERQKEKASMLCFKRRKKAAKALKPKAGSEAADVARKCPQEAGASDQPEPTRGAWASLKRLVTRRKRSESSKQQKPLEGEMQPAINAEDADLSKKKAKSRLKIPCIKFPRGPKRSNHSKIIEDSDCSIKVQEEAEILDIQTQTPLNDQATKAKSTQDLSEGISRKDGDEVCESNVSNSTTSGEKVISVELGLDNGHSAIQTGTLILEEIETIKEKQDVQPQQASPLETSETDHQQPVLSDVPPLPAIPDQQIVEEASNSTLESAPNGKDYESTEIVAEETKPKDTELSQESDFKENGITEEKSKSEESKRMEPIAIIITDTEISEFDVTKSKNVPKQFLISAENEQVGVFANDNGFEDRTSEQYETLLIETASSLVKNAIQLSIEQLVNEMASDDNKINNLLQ
AKAP79-CFP I338P variant (PPAIIIT), full-length (human), sequence (P24588 whole entry I338P): as the sequence (P24588 whole entry) above, with I338P counted along it
ATTO425-AKAP79(333–408) I338P variant (PPAIIIT) (human), sequence (P24588 333-408 I338P): as the sequence (P24588 333-408) above, with I6P counted along it

A corrected YFP/CFP fluorescence intensity ratio (treated as 1:1 complex) [1] of 8.1 and a corrected YFP/CFP fluorescence intensity ratio (treated as 2:1 complex) [1] of 7.1 were found for “CNAα-YFP (from UniProt Q08209 1-521) (enzyme)” in this work.

A corrected YFP/CFP fluorescence intensity ratio (treated as 2:1 complex) [2] of 6.1 and a stoichiometry N [2] of 1 were found for “CNAα-YFP (from UniProt Q08209 1-521) (enzyme; other documents disagree on this pair)” in this work.

“rhodamine-CN (calcineurin labelled with tetramethylrhodamine acceptor) (from UniProt Q08209;P63098) (complex)” was tested, and the half-time of dissociation [3] was 163 ms, the Kd [4] was 400 nM and 300 nM and the koff [4] was 9.96 s⁻¹.
